Test results: paper PMC10810270, “Molecular mechanism of specific DNA sequence recognition by NRF1” (Nucleic Acids Research, 2023)
Substitutions are numbered along the chain they refer to.

Experiments:
NRF1 DD-DBD [1] = molecular target: T1, NRF1 DD-DBD (human, UniProt Q16656 54-284); assay: ITC; ITC: 20 mM Hepes pH 7.0, 150 mM NaCl, 25 C; protein 20-30 uM, dsDNA 500-600 uM; conditions: protein: recombinant, tags: N-terminal His6 removed by TEV (pET28-MHL), chain copies: 2, blunt
T1 sequence: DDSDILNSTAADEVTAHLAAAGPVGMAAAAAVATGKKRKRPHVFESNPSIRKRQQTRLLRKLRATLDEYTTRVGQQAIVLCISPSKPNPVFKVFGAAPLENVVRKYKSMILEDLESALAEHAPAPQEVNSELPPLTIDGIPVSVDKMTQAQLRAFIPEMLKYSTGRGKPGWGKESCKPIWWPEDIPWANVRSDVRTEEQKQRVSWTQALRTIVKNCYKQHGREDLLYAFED

NRF1 N242A = molecular target: T2, NRF1 N242A (human, UniProt Q16656 54-284, N242A); assay: ITC; mean of repeats 1.40, 1.89, 1.89; ITC: 20 mM Hepes pH 7.0, 150 mM NaCl, 25 C; protein 20-30 uM, dsDNA 500-600 uM; conditions: protein: recombinant; tags: N-terminal His6 removed by TEV; chain copies: 2; blunt; self-complementary
T2 sequence: T1 sequence with N189A

NRF1 DD = molecular target: T3, NRF1 DD (human, UniProt Q16656 54-177); assay: ITC; repeats 1.86, 1.78, 1.96; ITC: 20 mM Hepes pH 7.0, 150 mM NaCl, 25 C; protein 20-30 uM, dsDNA 500-600 uM; conditions: protein: recombinant; tags: N-terminal His6 removed by TEV (pET28-MHL); chain copies: 2; blunt; self-complementary
T3 sequence: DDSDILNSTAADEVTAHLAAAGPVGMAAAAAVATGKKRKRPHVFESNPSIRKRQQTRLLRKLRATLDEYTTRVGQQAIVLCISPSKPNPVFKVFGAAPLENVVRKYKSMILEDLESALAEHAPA

NRF1 R244A = molecular target: T4, NRF1 R244A (human, UniProt Q16656 54-284, R244A); assay: ITC; mean of repeats 6.45, 8.62, 4.92; ITC: 20 mM Hepes pH 7.0, 150 mM NaCl, 25 C; protein 20-30 uM, dsDNA 500-600 uM; conditions: protein: recombinant; tags: N-terminal His6 removed by TEV; chain copies: 2; blunt; self-complementary
T4 sequence: T1 sequence with R191A

NRF1 T109A = molecular target: T5, NRF1 T109A (human, UniProt Q16656 54-284, T109A); assay: ITC; mean of repeats 2.80, 2.36, 1.72; ITC: 20 mM Hepes pH 7.0, 150 mM NaCl, 25 C; protein 20-30 uM, dsDNA 500-600 uM; conditions: protein: recombinant; tags: N-terminal His6 removed by TEV; chain copies: 2; blunt; self-complementary
T5 sequence: T1 sequence with T56A

NRF1 DBD [2] = molecular target: T6, NRF1 DBD (human, UniProt Q16656 177-284); assay: ITC; ITC: 20 mM Hepes pH 7.0, 150 mM NaCl, 25 C; protein 20-30 uM, dsDNA 500-600 uM; conditions: protein: recombinant; tags: N-terminal His6 removed by TEV (pET28-MHL); chain copies: 2; blunt; self-complementary
T6 sequence: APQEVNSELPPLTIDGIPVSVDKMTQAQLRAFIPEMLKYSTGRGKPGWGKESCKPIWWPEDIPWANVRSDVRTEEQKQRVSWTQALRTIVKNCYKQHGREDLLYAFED

NRF1 R206A = molecular target: T7, NRF1 R206A (human, UniProt Q16656 54-284, R206A); assay: ITC; mean of repeats 5.60, 5.60, 4.40; ITC: 20 mM Hepes pH 7.0, 150 mM NaCl, 25 C; protein 20-30 uM, dsDNA 500-600 uM; conditions: protein: recombinant; tags: N-terminal His6 removed by TEV; chain copies: 2; blunt; self-complementary
T7 sequence: T1 sequence with R153A

NRF1 T109D = molecular target: T8, NRF1 T109D (human, UniProt Q16656 54-284, T109D); assay: ITC; mean of repeats 1.62, 1.87, 1.30; ITC: 20 mM Hepes pH 7.0, 150 mM NaCl, 25 C; protein 20-30 uM, dsDNA 500-600 uM; conditions: protein: recombinant; tags: N-terminal His6 removed by TEV; chain copies: 2; blunt; self-complementary
T8 sequence: T1 sequence with T56D

[3] = molecular target: the molecule itself; assay: SEC-MALS; HPLC-MALS, WTC-015S5 column, 50 mM PBS and 150 mM NaCl, 0.5 mL/min; oligomeric state of NRF1 fragments without DNA
NRF1 DD-DBD [4] = molecular target: T1, NRF1 DD-DBD; assay: ITC; mean of listed repeats 0.34 and 0.25; ITC: 20 mM Hepes pH 7.0, 150 mM NaCl, 25 C; protein 20-30 uM, dsDNA 500-600 uM; conditions: protein: recombinant; tags: N-terminal His6 removed by TEV (pET28-MHL); chain copies: 2; blunt; self-complementary
NRF1 DBD [5] = molecular target: T6, NRF1 DBD; assay: crystal structure; ITC: 20 mM Hepes pH 7.0, 150 mM NaCl, 25 C; protein 20-30 uM, dsDNA 500-600 uM; conditions: protein: recombinant; tags: N-terminal His6 removed by TEV (pET28-MHL); chain copies: 2; blunt; self-complementary

B1: CG central (dsDNA)
DNA 1: ATGCGCCGGCGCAT
DNA 2: ATGCGCCGGCGCAT
Question: B1 was tested. Which Kd (NRF1 DD-DBD [1]; self-complementary) did it give?
Answer: The Kd was 1090 ± 60 nM.

B2: GCGt (dsDNA)
DNA 1: ATGCGTATGCGCAT
DNA 2: ATGCGCATACGCAT
Question: B2 was tested. Which Kd (NRF1 DD-DBD [1]) did it give?
Answer: The Kd was 1250 ± 110 nM.

B3: GaGC (dsDNA)
DNA 1: ATGAGCATGCGCAT
DNA 2: ATGCGCATGCTCAT
Question: How did the Kd (NRF1 DD-DBD [1]) turn out when B3 was run?
Answer: Its Kd is 1380 ± 150 nM.

B4: ACACTT spacer (dsDNA)
DNA 1: ATGCGCACACTTGCGCAT
DNA 2: ATGCGCAAGTGTGCGCAT
Question: For B4, which Kd (NRF1 DD-DBD [1]) is on record?
Answer: Its Kd is 4360 ± 290 nM.

B5: 14 bp AT central (WT) (dsDNA)
DNA 1: ATGCGCATGCGCAT
DNA 2: ATGCGCATGCGCAT
Question: With B5 as the binder, how does the Kd (NRF1 N242A) read?
Answer: Its Kd is ~1730 nM.

Question: And the Kd (NRF1 DD)?
Answer: The Kd was ~1800 nM.

Question: What about the Kd (NRF1 R244A) of the same binder?
Answer: The Kd was ~6660 nM.

Question: What about the Kd (NRF1 T109A) of the same binder?
Answer: Its Kd is ~2290 nM.

Question: What about the Kd (NRF1 DD-DBD [1]; self-complementary) of the same binder?
Answer: Its Kd is 310 ± 50 nM.

Question: And the Kd (NRF1 DBD [2])?
Answer: The Kd was ~1400 nM.

Question: And the Kd (NRF1 R206A)?
Answer: The Kd was ~5200 nM.

Question: What about the Kd (NRF1 T109D) of the same binder?
Answer: Its Kd is ~1600 nM.

B6: GCaC (dsDNA)
DNA 1: ATGCACATGCGCAT
DNA 2: ATGCGCATGTGCAT
Question: How did the Kd (NRF1 DD-DBD [1]) turn out when B6 was run?
Answer: The Kd was 660 ± 40 nM.

B7: ACT spacer (dsDNA)
DNA 1: ATGCGCACTGCGCAT
DNA 2: ATGCGCAGTGCGCAT
Question: How did the Kd (NRF1 DD-DBD [1]) turn out when B7 was run?
Answer: Its Kd is 1960 ± 270 nM.

B8: GCGt/aCGC (dsDNA)
DNA 1: ATGCGTATACGCAT
DNA 2: ATGCGTATACGCAT
Question: For B8, which Kd (NRF1 DD-DBD [1]; self-complementary) is on record?
Answer: The Kd was 1310 ± 180 nM.

B9: GtGC (dsDNA)
DNA 1: ATGTGCATGCGCAT
DNA 2: ATGCGCATGCACAT
Question: With B9 as the binder, how does the Kd (NRF1 DD-DBD [1]) read?
Answer: The Kd was 1810 ± 250 nM.

B10: ACACT spacer (dsDNA)
DNA 1: ATGCGCACACTGCGCAT
DNA 2: ATGCGCAGTGTGCGCAT
Question: Which Kd (NRF1 DD-DBD [1]) does the source give for B10 here?
Answer: Its Kd is 2320 ± 480 nM.

B11: GCGa (dsDNA)
DNA 1: ATGCGAATGCGCAT
DNA 2: ATGCGCATTCGCAT
Question: With B11 as the binder, how does the Kd (NRF1 DD-DBD [1]) read?
Answer: The Kd was 3750 ± 690 nM.

B12: aCGC (dsDNA)
DNA 1: ATACGCATGCGCAT
DNA 2: ATGCGCATGCGTAT
Question: How did the Kd (NRF1 DD-DBD [1]) turn out when B12 was run?
Answer: Its Kd is 1270 ± 270 nM.

B13: ACACTCT spacer (dsDNA)
DNA 1: ATGCGCACACTCTGCGCAT
DNA 2: ATGCGCAGAGTGTGCGCAT
Question: How did the Kd (NRF1 DD-DBD [1]) turn out when B13 was run?
Answer: The Kd was 4310 ± 280 nM.

B14: NRF1 (aa 54–284) (domain or fragment, human, UniProt Q16656 54-284, looked up)
chain: T1 sequence
notes: pET28-MHL vector; His6 tag removed with TEV protease; also called Nuclear respiratory factor 1; NRF1 dimer; source: E. coli BL21 (DE3), purified (Ni-NTA, anion exchange, gel filtration); not shown: His6, N-terminal, cleaved
Question: Which “stoichiometry N” value [3] does the source give for B14 here?
Answer: Its value is 2.

B15: atta/GCGC (dsDNA)
DNA 1: ATATTAATGCGCAT
DNA 2: ATGCGCATTAATAT
Question: For B15, which Kd (NRF1 DD-DBD [1]) is on record?
Answer: The Kd was 3760 ± 230 nM.

B16: GCaC/GtGC (dsDNA)
DNA 1: ATGCACATGTGCAT
DNA 2: ATGCACATGTGCAT
Question: B16 was tested. Which Kd (NRF1 DD-DBD [1]; self-complementary) did it give?
Answer: Its Kd is 4430 ± 550 nM.

B17: 20 bp DNA (dsDNA)
DNA 1: GCGATGCGCATGCGCATCGC
DNA 2: GCGATGCGCATGCGCATCGC
Question: With B17 as the binder, how does the Kd (NRF1 DD-DBD [4]) read?
Answer: The Kd was ~300 nM.

B18: tCGC (dsDNA)
DNA 1: ATTCGCATGCGCAT
DNA 2: ATGCGCATGCGAAT
Question: Which Kd (NRF1 DD-DBD [1]) does the source give for B18 here?
Answer: Its Kd is 2110 ± 800 nM.

B19: NRF1 (aa 54–177) (domain or fragment, human, UniProt Q16656 54-177, looked up)
chain: T3 sequence
notes: pET28-MHL vector; His6 tag removed with TEV protease; also called NRF1 DD; dimerization domain; source: E. coli BL21 (DE3), purified (Ni-NTA, anion exchange, gel filtration); not shown: His6, N-terminal, cleaved
Question: How did the “stoichiometry N” value [3] turn out when B19 was run?
Answer: Its value is 2.

B20: NRF1 (aa 98–177) (domain or fragment, human, UniProt Q16656 98-177, looked up)
chain: ESNPSIRKRQQTRLLRKLRATLDEYTTRVGQQAIVLCISPSKPNPVFKVFGAAPLENVVRKYKSMILEDLESALAEHAPA
notes: pET28-MHL vector; His6 tag removed with TEV protease; source: E. coli BL21 (DE3), purified (Ni-NTA, anion exchange, gel filtration); not shown: His6, N-terminal, cleaved
Question: How did the “stoichiometry N” value [3] turn out when B20 was run?
Answer: The value was 2.

B21: no spacer (dsDNA)
DNA 1: ATGCGCGCGCAT
DNA 2: ATGCGCGCGCAT
Question: With B21 as the binder, how does the Kd (NRF1 DD-DBD [1]; self-complementary) read?
Answer: The Kd was 570 ± 20 nM.

B22: ACGT spacer (dsDNA)
DNA 1: ATGCGCACGTGCGCAT
DNA 2: ATGCGCACGTGCGCAT
Question: For B22, which Kd (NRF1 DD-DBD [1]; self-complementary) is on record?
Answer: The Kd was 910 ± 40 nM.

B23: A spacer (dsDNA)
DNA 1: ATGCGCAGCGCAT
DNA 2: ATGCGCTGCGCAT
Question: With B23 as the binder, how does the Kd (NRF1 DD-DBD [1]) read?
Answer: The Kd was 1620 ± 110 nM.

B24: 16 bp DNA (dsDNA)
DNA 1: GGTGCGCATGCGCACC
DNA 2: GGTGCGCATGCGCACC
Question: Does B24 bind (NRF1 DBD [5])?
Answer: Result: binds

B25: GCtC (dsDNA)
DNA 1: ATGCTCATGCGCAT
DNA 2: ATGCGCATGAGCAT
Question: With B25 as the binder, how does the Kd (NRF1 DD-DBD [1]) read?
Answer: The Kd was 2230 ± 170 nM.
